Data taken from patent publication US5273879, “Amplification method for polynucleotide assays” (Syntex (U.S.A.) Inc.).

Target: Klenow fragment DNA polymerase (UniProt P00582 P00582:324-928)
Assay: primer extension, 7 mM MgCl2, 50 mM NaCl, 37 C
Settings: tags: Pharmacia Lot NM 92818; label: 5'-32P on 17 mer
Method: The 120 mer (1 μg=25 pmoles) was incubated with a ten-fold molar excess (1.4 μg=250 pmoles) of 17 mer including all of the radioactively labeled 17 mer described above at 60° C. for 5 minutes and then slowly cooled over 30 minutes to 37° C. in a volume of 20.2 μl in 1.3×Klenow buffer (1×Klenow buffer is 7 mM Tris-HCl (pH 7.5), 7 mM MgCl_2, 50 mM NaCl). To this cooled reaction mix was added 2 μl of a solution of 0.4 mM dATP, dCTP, dGTP, dTTP (final conc.=32 μM of each dNTPs), 1.8 μl of 0.1M dithiothreitol (final conc.=[…]) and 7.2 units of Klenow polymerase (Pharmacia Lot #NM 92818) in a final concentration of 1×Klenow buffer. This reaction was incubated at 37° C. for 30 minutes. An additional 7.2 units of Klenow polymerase (1 μl volume) was added and the reaction was continued at 37° C. for one hour.
The reaction products were ethanol precipitated by the addition of 375 μl of 0.3M Na Acetate (pH 5.4) and 1.1 ml ethanol (−20° C.), followed by spinning at 15,000 g's for 30 minutes. The precipitated DNA was then resuspended in 25 μl of H_2O and reprecipitated with 1 ml of 100% ethanol (4° C.) and centrifugation as above. The supernatant was removed and the precipitated DNA pellet dried under vacuum.

Sequence of Klenow fragment DNA polymerase (P00582 324-928, one chain of several): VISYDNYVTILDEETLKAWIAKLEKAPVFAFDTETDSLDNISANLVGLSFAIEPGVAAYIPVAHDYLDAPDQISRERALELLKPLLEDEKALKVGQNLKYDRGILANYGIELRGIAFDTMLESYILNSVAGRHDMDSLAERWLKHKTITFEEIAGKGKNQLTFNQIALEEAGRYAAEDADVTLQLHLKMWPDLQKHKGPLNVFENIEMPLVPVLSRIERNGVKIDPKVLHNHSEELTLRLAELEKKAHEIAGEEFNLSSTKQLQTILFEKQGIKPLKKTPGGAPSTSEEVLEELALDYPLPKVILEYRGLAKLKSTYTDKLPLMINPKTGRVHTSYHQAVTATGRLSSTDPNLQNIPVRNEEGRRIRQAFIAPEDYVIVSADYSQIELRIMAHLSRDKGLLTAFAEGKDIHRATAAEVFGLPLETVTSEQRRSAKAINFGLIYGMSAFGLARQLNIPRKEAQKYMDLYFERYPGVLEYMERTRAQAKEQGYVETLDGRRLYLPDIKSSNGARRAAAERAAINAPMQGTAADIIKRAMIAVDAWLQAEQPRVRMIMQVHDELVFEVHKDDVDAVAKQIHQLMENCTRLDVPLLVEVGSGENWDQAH

B1: 120 mer repeating template / 17 mer primer, extended (dsDNA)
DNA 1: CGGGGAATTCTTTAAATATTCCTTTAAACCTACCTTTAAACCTACCTTTAAACCTACCTTTAAACCTACCTTTAAACCTACCTTTAAACCTACCTTTAAATATTCCGAATTCACTGGCCG
DNA 2: CGGCCAGTGAATTCGGA
- binding result: binds
